Experimental data as given in PMC8380825 (Journal of molecular biology, 2021).
Several values for one entry are separate records, joined by “and”; a condition that tells them apart may be missing. Identical values can stand only once. Like-named read-outs stand apart in the source and are kept apart here. Where no end group is shown, it is not given here. TAMRA = 5(6)-carboxytetramethylrhodamine

Columns and labels:
[1] = target: T1, NPR-11 (Caenorhabditis elegans, UniProt Q18179); assay: cAMP reporter gene assay; type: cell-based, C. elegans; conditions: wild type NPR-11
T1 sequence (Q18179 1-402): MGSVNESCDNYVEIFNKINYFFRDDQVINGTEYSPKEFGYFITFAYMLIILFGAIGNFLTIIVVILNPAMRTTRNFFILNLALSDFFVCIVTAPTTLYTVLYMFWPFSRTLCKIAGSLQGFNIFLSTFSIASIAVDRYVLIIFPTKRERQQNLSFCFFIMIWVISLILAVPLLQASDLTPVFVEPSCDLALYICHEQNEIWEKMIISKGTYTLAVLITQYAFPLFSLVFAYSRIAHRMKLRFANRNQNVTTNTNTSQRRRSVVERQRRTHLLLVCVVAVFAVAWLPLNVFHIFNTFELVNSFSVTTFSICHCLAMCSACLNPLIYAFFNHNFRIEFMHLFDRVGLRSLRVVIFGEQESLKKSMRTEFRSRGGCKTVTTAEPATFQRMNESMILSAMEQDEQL

[2] = target: NPR-11 mutants (Caenorhabditis elegans, UniProt Q18179, E196D); assay: cAMP reporter gene assay; type: cell-based, C. elegans; conditions: NPR-11 E^5.23D
[3] = target: T2, Nluc-NPR-1-eYFP (C. elegans neuropeptide receptor NPR-1, wild type) (C. elegans) (UniProt Q18534)
T2 sequence: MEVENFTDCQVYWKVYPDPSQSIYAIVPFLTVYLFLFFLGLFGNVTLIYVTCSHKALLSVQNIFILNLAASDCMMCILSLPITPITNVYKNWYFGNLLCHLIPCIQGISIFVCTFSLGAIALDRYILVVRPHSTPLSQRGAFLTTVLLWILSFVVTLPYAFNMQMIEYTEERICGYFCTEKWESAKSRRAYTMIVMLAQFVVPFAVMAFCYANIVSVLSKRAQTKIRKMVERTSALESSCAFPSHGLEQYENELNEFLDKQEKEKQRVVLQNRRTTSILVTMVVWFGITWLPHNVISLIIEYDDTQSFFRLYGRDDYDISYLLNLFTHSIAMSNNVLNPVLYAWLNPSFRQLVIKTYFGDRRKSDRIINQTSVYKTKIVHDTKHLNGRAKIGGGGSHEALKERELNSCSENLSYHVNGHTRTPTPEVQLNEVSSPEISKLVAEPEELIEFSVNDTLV

[4] = target: T3, NPR-1 (Caenorhabditis elegans, UniProt Q18534); assay: NanoBRET displacement binding assay, Nluc-NPR-1; parameters: species or system C. elegans; conditions: HEK293 membranes, 100 nM [TAMRA]-FLP-21 tracer, 90 min, room temperature
T3 sequence (Q18534 1-457): T2 sequence

[5] = target: T3, NPR-1; assay: cAMP reporter gene assay; type: cell-based, C. elegans; conditions: wild type NPR-1
[6] = target: NPR-1 mutants (Caenorhabditis elegans, UniProt Q18534, E301A); assay: cAMP reporter gene assay; type: cell-based, C. elegans; conditions: NPR-1 E^6.59A
[7] = target: NPR-1 mutants (Caenorhabditis elegans, UniProt Q18534, E180D); assay: cAMP reporter gene assay; type: cell-based, C. elegans; conditions: NPR-1 E^5.27D
[8] = target: T2, Nluc-NPR-1-eYFP (C. elegans neuropeptide receptor NPR-1, wild type) (C. elegans); remark: listed apart in the source
[9] = target: Nluc-NPR-11-eYFP Q3.32A (C. elegans) (UniProt Q18179); assay: FRET or BRET
[10] = target: T4, Nluc-NPR-1-eYFP (C. elegans neuropeptide receptor NPR-1, wild type) (C. elegans, UniProt Q18534 1-457); assay: cell-based or functional assay
T4 sequence (looked up): T2 sequence

[11] = target: T5, Nluc-NPR-11-eYFP (C. elegans neuropeptide receptor NPR-11, wild type) (C. elegans, UniProt Q18179 1-402); assay: FRET or BRET
T5 sequence (looked up): T1 sequence (Q18179 1-402)

[12] = target: T5, Nluc-NPR-11-eYFP (C. elegans …); assay: cell-based or functional assay
[13] = target: Nluc-NPR-11-eYFP Q3.32H (C. elegans) (UniProt Q18179); assay: FRET or BRET
[14] = target: T4, Nluc-NPR-1-eYFP (C. elegans …); assay: FRET or BRET
[15] = target: T2, Nluc-NPR-1-eYFP (C. elegans neuropeptide receptor NPR-1, wild type) (C. elegans); remark: listed apart in the source
[16] = target: T2, Nluc-NPR-1-eYFP (C. elegans neuropeptide receptor NPR-1, wild type) (C. elegans); remark: listed apart in the source
[17] = target: NPR-1-eYFP E6.59A (C. elegans), Q18534
[18] = target: NPR-1-eYFP E6.59D (C. elegans), Q18534
[19] = target: NPR-1-eYFP E5.27D (C. elegans), Q18534
[20] = target: Nluc-NPR-11-eYFP Q3.32A (C. elegans) (UniProt Q18179)
[21] = target: NPR-11-eYFP E5.23D (C. elegans), Q18179

Sequence of NPR-1 mutants (Caenorhabditis elegans, UniProt Q18534, E301A) (Q18534 whole entry E301A): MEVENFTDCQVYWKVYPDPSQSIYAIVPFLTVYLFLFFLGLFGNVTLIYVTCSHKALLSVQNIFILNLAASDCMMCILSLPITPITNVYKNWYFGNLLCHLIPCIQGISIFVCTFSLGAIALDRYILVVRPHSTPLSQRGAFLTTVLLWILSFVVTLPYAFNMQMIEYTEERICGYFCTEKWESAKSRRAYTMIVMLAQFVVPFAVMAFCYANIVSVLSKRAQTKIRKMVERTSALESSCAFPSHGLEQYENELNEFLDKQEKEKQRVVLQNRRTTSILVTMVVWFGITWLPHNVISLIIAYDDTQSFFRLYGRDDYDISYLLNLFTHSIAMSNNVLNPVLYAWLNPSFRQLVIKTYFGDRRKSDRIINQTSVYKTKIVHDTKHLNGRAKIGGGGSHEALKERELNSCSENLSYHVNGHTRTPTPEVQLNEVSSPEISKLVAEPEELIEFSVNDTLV
Sequence of NPR-11 mutants (Q18179 whole entry E196D): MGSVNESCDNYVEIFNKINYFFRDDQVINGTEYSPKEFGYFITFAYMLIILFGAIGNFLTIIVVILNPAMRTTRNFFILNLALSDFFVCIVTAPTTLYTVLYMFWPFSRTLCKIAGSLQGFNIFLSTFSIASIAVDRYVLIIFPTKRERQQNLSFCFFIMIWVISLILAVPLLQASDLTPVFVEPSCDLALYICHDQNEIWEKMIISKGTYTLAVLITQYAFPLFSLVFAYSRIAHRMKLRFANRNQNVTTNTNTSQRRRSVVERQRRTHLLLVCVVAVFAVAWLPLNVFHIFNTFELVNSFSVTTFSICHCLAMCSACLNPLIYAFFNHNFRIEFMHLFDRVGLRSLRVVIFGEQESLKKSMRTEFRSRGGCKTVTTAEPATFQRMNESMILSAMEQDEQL
Sequence of NPR-1 mutants (Caenorhabditis elegans, UniProt Q18534, E180D) (Q18534 whole entry E180D): as the sequence (Q18534 whole entry E301A) above, with E180D, A301E counted along it

[L^16Q]-FLP-34–1: FLP-34–1 variant, L^16 to glutamine (ADISTFASAINNAGRQRY-NH2)
receptor activation in words [1]: impaired activation

[R^17hArg]-FLP-34–1: FLP-34–1 variant, R^17 to homoarginine
EC50 shift compared to wild type FLP-34–1 at the same receptor mutant [2]: 0.9 fold | EC50 shift relative to wild type FLP-34–1 [1]: > 70 fold and 77 fold

[F9Cha]-FLP-21 (peptide)
cAMP reporter gene assay (Gi/o), EC50 shift against wild type FLP-21 [3]: > 600 fold

[F^9Y]-FLP-21: FLP-21 variant, F^9 to tyrosine (GLGPRPLRY-NH2)
Ki shift relative to wild type FLP-21 [4]: 11 fold | EC50 shift (loss of potency) relative to wild type FLP-21 [5]: 14 fold | receptor activation in words [1]: wild type-like activity

[R^5A]-FLP-21: FLP-21 variant, R^5 to alanine (GLGPAPLRF-NH2)
EC50 shift (loss of potency) relative to wild type FLP-21 [5]: 368 fold

Ac-FLP-21: FLP-21 acetylated at the free N terminus (Ac-GLGPRPLRF-NH2)
EC50 shift (loss of potency) relative to wild type FLP-21 [5]: 3 fold

[P^6A]-FLP-21: FLP-21 variant, P^6 to alanine (GLGPRALRF-NH2)
EC50 shift (loss of potency) relative to wild type FLP-21 [5]: 34 fold | EC50 shift relative to wild type FLP-21 [1]: 18 fold

[F^9Cha]-FLP-21: FLP-21 variant, F^9 replaced with cyclohexylalanine
EC50 shift (loss of potency) relative to wild type FLP-21 [5]: > 600 fold | EC50 shift relative to wild type FLP-21 [1]: 20 fold

[R^15A]-FLP-34–1: FLP-34–1 variant, R^15 to alanine (ADISTFASAINNAGALRY-NH2)
EC50 shift relative to wild type FLP-34–1 [1]: > 900 fold

[R^8hArg]-FLP-21: FLP-21 variant, R^8 replaced with homoarginine
EC50 shift relative to wild type FLP-21 at the same receptor mutant [6]: 91 fold | EC50 shift relative to wild type FLP-21 at the same receptor mutant [7]: 34 fold | EC50 shift (loss of potency) relative to wild type FLP-21 [5]: > 900 fold and 976 fold | EC50 shift relative to wild type FLP-21 [1]: 135 fold

[L^16A]-FLP-34–1: FLP-34–1 variant, L^16 to alanine (ADISTFASAINNAGRARY-NH2)
EC50 shift relative to wild type FLP-34–1 [1]: > 140 fold

[R5hArg]-FLP-21 (peptide)
cAMP reporter gene assay (Gi/o), EC50 of receptor activation [8]: 5.2 nM

{TAMRA}-GLGPRPLRF-NH2 [[TAMRA]-FLP-21]
Kd [9]: 190 nM | cAMP reporter gene assay (Gi/o), reduction of potency against wild type FLP-21 [10]: 12 fold

GLGPRPARF-NH2 [[L7A]-FLP-21]
fold reduction of Ki against FLP-21 [9]: 100 fold | fold reduction of Ki against FLP-21 [11]: < 10 fold | cAMP reporter gene assay (Gi/o), decrease of activity against wild type FLP-21 [10]: 497 fold | cAMP reporter gene assay (Gi/o), EC50 shift against wild type FLP-21 [12]: 10 fold

{TAMRA}-ADISTFASAINNAGRLRY-NH2 [[TAMRA]-FLP-34–1]
fold reduction of binding affinity against wild type NPR-11 [13]: 4 fold

ADISTFASAINNAGRLRY-NH2 [FLP-34–1 (ADISTFASAINNAGRLRYamide)]
Ki [11]: 107 nM

GLGPRPLRF-NH2 [FLP-21 (GLGPRPLRFamide)]
Ki [11]: 107 nM

GLGPRPLRY-NH2 [[F9Y]-FLP-21]
fold shift of Ki against wild type FLP-21 [14]: 11 fold | cAMP reporter gene assay (Gi/o), EC50 shift against wild type FLP-21 [10]: 14 fold

Ac-GLGPRPLRF-NH2 [N-terminally acetylated FLP-21]
cAMP reporter gene assay (Gi/o), reduction of potency against wild type FLP-21 [15]: 3 fold

GLGPAPLRF-NH2 [[R5A]-FLP-21]
cAMP reporter gene assay (Gi/o), EC50 shift against wild type FLP-21 [16]: 368 fold

GLGPRALRF-NH2 [[P6A]-FLP-21]
cAMP reporter gene assay (Gi/o), decrease of activity against wild type FLP-21 [16]: 34 fold

GLGPRPLRF-NH2 [FLP-21 (…amide)]
cAMP reporter gene assay (Gi/o), EC50 of receptor activation [17]: 20 nM | cAMP reporter gene assay (Gi/o), EC50 of receptor activation [18]: 0.13 nM | cAMP reporter gene assay (Gi/o), EC50 of receptor activation [19]: 495 nM | cAMP reporter gene assay (Gi/o), EC50 of receptor activation [20]: 0.1 nM

ADISTFASAINNAGRLRY-NH2 [FLP-34–1 (…amide)]
cAMP reporter gene assay (Gi/o), EC50 against the wild type receptor [21]: 92 fold
